Where two headings read alike, the source gives them in different places.
Key:
GPR3-BRIL fusion protein [1] = molecular target: GPR3-BRIL fusion protein (UniProt P46089); test: cryo-EM structure
GPR3-BRIL fusion protein [2] = molecular target: GPR3-BRIL fusion protein (UniProt P46089); test: cryo-EM structure; remark: listed apart in the source

stoichiometry N (GPR3-BRIL fusion protein [1]): 2 | stoichiometry N (GPR3-BRIL fusion protein [2]): 2
Substance: GPR3-BRIL fusion protein (from UniProt P46089 1-222; P46089 240-330) (receptor)

Reference: publication doi:10.1101/2025.04.19.649678
